Test results published in patent US20190201487.

Target: T1, neonatal NET-Inhibitory Factor (nNIF)
T1 chain: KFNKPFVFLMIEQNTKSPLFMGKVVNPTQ

B1: neutrophil elastase (NE) (protein)
chain: IVGGRRARPHAWPFMVSLQLRGGHFCGATLIAPNFVMSAAHCVANVNVRAVRVVLGAHNLSRREPTRQVFAVQRIFENGYDPVNLLNDIVILQLNGSATINANVQVAQLPAQGRRLGNGVQCLAMGWGLLGRNRGIASVLQELNVTVVTSLCRRSNVCTLVRGRQAGVCFGDSGSPLVCNGLIHGIASFVRGGCASGLYPDAFAPVAQFVNWIDSIIQ
NE enzyme activity in vitro (cleavage of (MeOSuc)-AAPV-(pNA)): neither nNIF nor CRISPP inhibited NE activity
